Test results published in US20240034774A1 (Gilead, published 2024).
Substitutions are numbered along the chain they refer to.

T1: Human FcγRIIA-167H (human, UniProt P12318 36-218)
T1 sequence (looked up): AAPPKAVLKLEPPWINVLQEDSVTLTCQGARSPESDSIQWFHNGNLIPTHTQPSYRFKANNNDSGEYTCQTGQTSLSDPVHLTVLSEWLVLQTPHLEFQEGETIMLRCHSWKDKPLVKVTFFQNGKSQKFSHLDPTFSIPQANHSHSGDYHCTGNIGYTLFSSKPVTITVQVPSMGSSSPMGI

T2: Human FcγRIIA-167R (human, UniProt P12318 36-218)
T2 sequence (looked up): T1 sequence (looked up) with H132R

T3: Human FcγRIIB (human, UniProt P31994 46-217)
T3 construct: also called FcγRIIB/C; FcRIIB/C
T3 sequence (looked up): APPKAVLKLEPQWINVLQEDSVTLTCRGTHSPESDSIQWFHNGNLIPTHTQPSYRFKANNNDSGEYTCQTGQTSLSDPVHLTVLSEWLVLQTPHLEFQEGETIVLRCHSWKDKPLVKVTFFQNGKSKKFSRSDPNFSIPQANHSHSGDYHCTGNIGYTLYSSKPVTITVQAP

B1: Antibody A-1 (antibody, human IgG1, kappa)
heavy: QVQLLQSGAAVTKPGASVRVSCEASGYNIRDYFIHWWRQAPGQGLQWVGWINPKTGQPNNPRQFQGRVSLTRHASWDFDTFSFYMDLKALRSDDTAVYFCARQRSDYWDFDVWGSGTQVTVSSASTKGPSVFPLAPSSKSTSGGTAALGCLVKDYFPEPVTVSWNSGALTSGVHTFPAVLQSSGLYSLSSVVTVPSSSLGTQTYICNVNHKPSNTKVDKKVEPKSCDKTHTCPPCPAPELLAGPDVFLFPPKPKDTLMISRTPEVTCVVVDVSHEDPEVKFNWYVDGVEVHNAKTKPREEQYNSTYRVVSVLTVLHQDWLNGKEYKCKVSNKALPLPEEKTISKAKGQPREPQVYTLPPSREEMTKNQVSLTCLVKGFYPSDIAVEWESNGQPENNYKTTPPVLDSDGSFFLYSKLTVDKSRWQQGNVFSCSVLHEALHSHYTQKSLSLSPGK
light: DIQMTQSPSSLSASVGDTVTITCQANGYLNWYQQRRGKAPKLLIYDGSKLERGVPSRFSGRRWGQEYNLTINNLQPEDIATYFCQVYEFVVPGTRLDLKRTVAAPSVFIFPPSDEQLKSGTASVVCLLNNFYPREAKVQWKVDNALQSGNSQESVTEQDSKDSTYSLSSTLTLSKADYEKHKVYACEVTHQGLSSPVTKSFNRGEC
B2: Antibody A (antibody, human IgG1, kappa)
heavy: not shown
light: B1 light
B3: Antibody 1.52.64-1 (antibody, human IgG1, kappa)
heavy: B1 heavy with W76F
light: B1 light with V19A

Columns and labels:
gp120 Bal = gp120 Bal (HIV-1)
gp120 CAAN = gp120 CAAN (HIV)
gp120 REJO = gp120 REJO (HIV)
Human FcγRIIIB-NA1 = biological target: T4, Human FcγRIIIB-NA1 (human, UniProt O75015 17-200); test: SPR (Biacore 4000), antibody amine coupled to CM4 chip, FcγRIIIB as analyte, steady-state fit
T4 construct: also called CD16b NA1

Human FcγRIIIB-NA2 = biological target: T5, Human FcγRIIIB-NA2 (human, UniProt O75015 17-200); test: as above
T5 construct: also called CD16b NA2

Human FcγRIIIA-176V = biological target: T6, Human FcγRIIIA-176V (human, UniProt P08637 17-208); test: SPR (Biacore 4000), receptor amine coupled to CM4 chip, antibody as analyte, steady-state fit
T6 construct: also called CD16a 176V

Human FcγRIIIA-176F = Human FcγRIIIA-176F (human, UniProt P08637 17-208); test: as above
Human FcγRIIA-167H = biological target: T1, Human FcγRIIA-167H; test: as above
Human FcγRIIA-167R = biological target: T2, Human FcγRIIA-167R; test: as above
Human FcγRIIB = biological target: T3, Human FcγRIIB; test: SPR (Biacore 4000), FcγRIIB/C amine coupled to CM4 chip, antibody as analyte, steady-state fit
Cyno FcγRIIA = biological target: T7, Cyno FcγRIIA (cynomolgus macaque); test: SPR (Biacore 4000), antibody amine coupled to CM4 chip, cyno FcγRIIA as analyte, steady-state fit
T7 construct: also called cynomolgus macaque FcγRIIA
Protocol: (§1) The in vitro binding dissociation constants (KD) of selected antibodies described herein for human and cynomolgus macaque (cyno) Fc binding receptors (FcγRs, FcRn) were determined using the Biacore 4000 surface plasmon resonace (SPR) biosensor, and either C1 or CM4 sensor chips (GE Healthcare).
(§2) To determine cynomolgus macaque FcγRIIA, FcγRIIB, FcγRIII and FcγRI binding affinities each test antibody was amine coupled to a CM4 sensor chip at two densities (about 100 RU and about 800 RU). Cyno FcγRIIA and FcγRIIB were tested in a two-fold concentration series up to 1 μM. FcγRIII was tested in a two-fold concentration up to 500 nM. Cyno FcγRI was tested for binding using a two-step titration (3 nM and 30 nM). The response data for FcγRIIA, FcγRIIB, FcγRIII at steady-state were fit to a simple binding isotherm. Responses for FcγRI were fit to a simple kinetic model.

Cyno FcγRIIB = biological target: T8, Cyno FcγRIIB (cynomolgus macaque); test: SPR (Biacore 4000), antibody amine coupled to CM4 chip, cyno FcγRIIB as analyte, steady-state fit
T8 construct: also called cynomolgus macaque FcγRIIB
Protocol: as §1, §2

Cyno FcγRIII = biological target: T9, Cyno FcγRIII (cynomolgus macaque, UniProt Q8SPW2 17-208); test: SPR (Biacore 4000), antibody amine coupled to CM4 chip, cyno FcγRIII as analyte, steady-state fit
T9 construct: also called cynomolgus macaque FcγRIII
Protocol: as §1, §2

Human FcγRI = biological target: T10, Human FcγRI (human, UniProt P12314 16-288); test: SPR (Biacore 4000), antibody amine coupled to CM4 chip, FcγRI as analyte (3 and 30 nM), kinetic fit
T10 construct: also called CD64
Protocol: (§3) The in vitro binding dissociation constants (KD) of selected antibodies described herein for human and cynomolgus macaque (cyno) Fc binding receptors (FcγRs, FcRn) were determined using the Biacore 4000 surface plasmon resonace (SPR) biosensor, and either C1 or CM4 sensor chips (GE Healthcare). Biotinylated human FcRn was purchased from Immunitrack. Biotinylated cynomolgus macaque FcRn and human FcγRIIIB-NA1 and FcγRIIIB-NA2 were purchased from Acro Biosystems.
To determine human FcγRI binding affinities, each test antibody was amine coupled to a CM4 sensor chip at two densities (about 100 RU and about 800 RU). Human FcγRI was tested for binding using a two-step titration series (3 nM and 30 nM). Responses were fit to a simple kinetic model.

Cyno FcγRI = biological target: T11, Cyno FcγRI (cynomolgus macaque, UniProt A0A2K5U901 33-309); test: SPR (Biacore 4000), antibody amine coupled to CM4 chip, cyno FcγRI as analyte (3 and 30 nM), kinetic fit
T11 construct: also called cynomolgus macaque FcγRI
Protocol: as §1, §2

Human FcRn [1] = biological target: T12, Human FcRn (human, UniProt P55899 24-297; P61769 21-119); test: SPR (Biacore 4000) at pH 6.0, biotinylated FcRn captured on streptavidin C1 chip, antibody as analyte, steady-state fit
T12 construct: also called neonatal Fc-receptor; biotinylated human FcRn
Protocol: as §1
(§4) For human FcRn binding assays, 600 RU of streptavidin was amine coupled to a C1 sensor chip using standard NHS/EDC coupling. The immobilization buffer was PBS+0.005% Tween 20, pH 7.4. Streptavidin was prepared at 50 μg/ml in 10 mM NaAc pH 4.5. Activation, coupling, and blocking steps were run for 10 minutes, each at 10 μl/min. […] Data were collected at pH 6.0 and pH 7.4 in triplicate. The response data at steady-state were fit to a simple binding isotherm.

Human FcRn [2] = biological target: T12, Human FcRn; test: SPR (Biacore 4000) at pH 7.4, biotinylated FcRn captured on streptavidin C1 chip, antibody as analyte, steady-state fit
Protocol: as §1, §4

Cyno FcRn [3] = biological target: T13, Cyno FcRn (cynomolgus macaque, UniProt Q8SPV9 24-297; Q8SPW0 21-119); test: SPR (Biacore 4000) at pH 6.0, biotinylated cyno FcRn captured on streptavidin C1 chip, antibody as analyte, steady-state fit
T13 construct: also called cynomolgus macaque FcRn; biotinylated cyno FcRn
Protocol: as §3
(§5) To determine cynomolgus macaque FcRn binding affinities, 600 RU of streptavidin was amine coupled to a C1 sensor chip using standard NHS/EDC coupling. The immobilization buffer was PBS+0.005% Tween 20, pH 7.4. Streptavidin was prepared at 50 μg/ml in 10 mM NaAc pH 4.5. Activation, coupling, and blocking steps were run for 10 minutes, each at 10 μl/min. Biotinylated cyno FcRn was captured to about 20 RU. Antibodies were tested for binding to the FcRn surface using a two-fold concentration series up to 1 μM. Data were collected at pH 6.0 and pH 7.4 in triplicate. The response data at steady-state were fit to a simple binding isotherm.

Cyno FcRn [4] = biological target: T13, Cyno FcRn; test: SPR (Biacore 4000) at pH 7.4, biotinylated cyno FcRn captured on streptavidin C1 chip, antibody as analyte, steady-state fit
Protocol: as §3, §5

human C1q protein = biological target: T14, human C1q protein (human, UniProt P02745 23-245; P02746 28-253; P02747 29-245); test: C1q binding ELISA, antibody coated on plate, titrated human C1q, anti-C1q-HRP detection, n = 3 assays
T14 construct: also called complement protein C1q
Protocol: A dose response binding ELISA was conducted to determine the relative C1q binding affinity of antibodies described herein. To conduct they assay, a 384-well Maxisorp plate was coated with 25 μl of antibody solution at 5 μg/mL in PBS pH 7.4 overnight at 4° C. Plates were then blocked with 75 μL of 1% BSA in PBS for 2 hours and washed 4 times with PBS+0.05% Tween 20 (PBST). Next, 25 μL of a three-fold serial dilution of human C1q protein in PBS+5% BSA was added to the plates. Plates were incubated with shaking at 600 rpm for one hour, washed 4 times with PBST and then 25 μL of anti-C1q-HRP conjugated polyclonal antibody was added in PBS+5% BSA. Plates were incubated with shaking at 600 rpm for 15 minutes, washed 8 times with PBST and then developed using 3,3′,5,5′-Tetramethylbenzidine (TMB) substrate and quenched with HCl.

Binder | EC50 (gp120 Bal) [nM] | EC50 (gp120 CAAN) [nM] | EC50 (gp120 REJO) [nM] | Kd (Human FcγRIIIB-NA1) [nM] | Kd (Human FcγRIIIB-NA2) [nM] | Kd (Human FcγRIIIA-176V) [nM] | Kd (Human FcγRIIIA-176F) [nM] | Kd (Human FcγRIIA-167H) [nM] | Kd (Human FcγRIIA-167R) [nM] | Kd (Human FcγRIIB) [nM] | Kd (Cyno FcγRIIA) [nM] | Kd (Cyno FcγRIIB) [nM] | Kd (Cyno FcγRIII) [nM] | Kd (Human FcγRI) [nM] | Kd (Cyno FcγRI) [nM] | Kd (Human FcRn [1]) [nM] | Kd (Human FcRn [2]) [nM] | Kd (Cyno FcRn [3]) [nM] | Kd (Cyno FcRn [4]) [nM] | EC50 (human C1q protein) [nM]
B1 | 0.06 | 2.17 | 2.37 | 59 | 56 | 59 | 52 | 131 | 130 | 1600 | 1100 | 240 | 7.1 | 0.002 | 0.005 | 38 | 1700 | 16 | 4300 | 
B2 | 0.05 | 1.84 | 2.21 | 2000 | 1500 | 670 | 2300 | 1800 | 3000 | 11000 | 2000 | 895 | 200 | 0.107 | 0.038 | 485 | 42000 | 1100 | 12800 | 2.2
B3 | 0.07 | 3.79 | 4.02 | 64 | 55 | 67 | 63 | 221 | 199 | 1900 | 1180 | 280 | 8 | 0.0012 | 0.005 | 49 | 1120 | 22 | 5300 | 
